The text below walks through data of US20230131339A1, “EPI-X4 BASED PEPTIDES AND DERIVATIVES THEREOF” (Universitaet Ulm, priority 2020, published 2023).

Values joined by “and” are separate entries in the source; they are usually repeats but may differ in a detail not shown here. Equal values may be shown once. Where a SMILES comes first, the peptide text is derived from it. Where no end group is shown, it is not given here. Side-chain parts run from the residue outwards. [ ]: non-standard residue; d: D form. The star is where a group is joined. Stearoyl = CCCCCCCCCCCCCCCCCC(=O)*; Palmitoyl = CCCCCCCCCCCCCCCC(=O)*; Glu = glutamate linker A value given as a limit tells only on which side of the number the result lay.

Data set [1] relates to CXCR4-tropic X4-HIV-1 (NL4-3). The class given is cell-based. To be noted: for IC50: CXCR4-tropic X4- (NL4-3).
For data set [2] the following is noted: mice, i.v. tail vein.
Protocol: Peptides were injected into the tail vein of mice. 4 hours post injection, mice were sacrificed and blood taken by heart punctation. Plasma was obtained by centrifugation and tested for remaining activity in antibody competition assay. As control, peptide was spiked into native plasma (ex vivo). IC50 values were determined by non-linear regression assuming 1.8 ml in vivo blood volume. Remaining activity was determined by IC50 (ex vivo)/IC50 (in vivo)×100. The tested peptides included JM #143 (SEQ ID NO.: 54), JM #144 (SEQ ID NO.: 55), JM #192 (SEQ ID NO.: 89), JM #180 (SEQ ID NO.: 77), JM #194 (SEQ ID NO.: 91), JM #235 (SEQ ID NO.: 130), JM #198 (SEQ ID NO.: 95), JM #255 (SEQ ID NO.: 150), JM #257 (SEQ ID NO.: 152) and JM #204 (SEQ ID NO.: 99). […] Shown are data from 2 individual mice measured in duplicates.
In vivo stability assay. 100 μl of a 700 μg/ml stock solution of the peptide in 0.9% NaCl was intravenously injected in the tail vein of C57BL/6NCrl (BL6) mice. 4 hours post injection, mice were killed by cervical dislocation. Mouse plasma was obtained by heart punctation. Blood was 19:1 diluted with 0.16 M NaEDTA and centrifuged at 2000×g for 20 min at 4° C. to obtain plasma. Plasma was stored at −80° C. till remaining peptide activity in the plasma was determined by 12G5 antibody competition assay.
Data set [3] has as its system CXCL12 induced migration of T-cells. Put plainly: Migration assay (transwell, Jurkat cells). The class given is cell-based. The procedure:
For each peptide, three independent experiments were performed. The error bars refer to the standard deviation.
Migration assay. Migration assays were performed using 96-well transwell assay plates (Corning Incorporated, Kennebunk, Me., USA) with 5 μm polycarbonate filters. […] Next, 75 μL (0.5×10^5 cells) of Jurkat cells (in assay buffer), together with/without the compounds, were added into the upper chambers. After 4 h at 37° C. (5% CO2), 100 μL of the lower chambers were transferred to a fresh 96 V-well plate and analyzed with Cell-Titer-Glo® assay (Promega, Madison, Wis., USA). The percentage of migrated cells was calculated as described by Balabanian et al. (2005). In order to obtain the relative migration in %, the percentage of migrated cells were normalized to the CXCL12-only control.

The subject of data set [4] is CXCL12 induced Ca2+-signalling. Put plainly: Ca++ signaling in BCR-ABL-transformed murine bone marrow cells. To be noted: 1 μM. The class given is cell-based. The procedure: Fifth, it was shown that the peptide derivatives inhibit calcium-signaling. CXCL12 stimulation of CXCR4 expressing B-cells leads to a strong calcium-release. In the presence of CXCR4 antagonists this response is reduced.
For calcium measurement, 1×10^6 BCR-ABL-transformed murine bone marrow cells were incubated with 5 μg/mL of Indo-1 (Molecular Probes) and 0.5 μg/mL of pluronic F-127 (Molecular Probes) in Iscove's medium supplemented with 1% FCS (Pan Biotech) at 37° C. for 45 min. Cells were then washed by centrifugation and the cell pellets were resuspended in Iscove's medium with 1% FCS and treated with the EPI-X4 derivatives (1 μM or 0.5 μM) for 10 minutes at room temperature. Cells were pre-warmed for 5 minutes at 37° C. Calcium flux was assessed by FACS measurement at BD LSR Fortessa. After 30 seconds of baseline recording, CXCR4-dependent calcium signaling was determined by stimulating with 100 ng/ml of mouse SDF-1a (PeproTech).

Data set [5] deals with CXCL12-induced AKT signaling. The data set is described as follows: ERK/AKT signaling assay in SupT1 cells: AKT phosphorylation. The class given is cell-based. How it is done: (§1) Third, the activity of the claimed EPI-X4 derivatives was tested by the effect on CXCL12/CXCR4-mediated ERK (Extracellular-signal Regulated Kinases) and AKT (a serine/threonine-protein kinase) signaling (FIG. 3). In that assay CXCR4 expressing cells are stimulated with the CXCR4 chemokine-ligand CXCL12, which subsequently leads to phosphorylation of ERK and AKT. Preincubation of cells with CXCR4-antagonists blocks those pathways. […] Two or three independent experiments were carried out in triplicates for each peptide in each assay. The error bars refer to the standard deviation.
(§2) ERK/AKT signaling assay. CXCL12 induced ERK and AKT phosphorylation was determined in SupT1 cells. For this, 100,000 cells were seeded per well in a 96-V well plate in 100 μl medium supplemented with 1% FCS. Cells were incubated for 2 hours at 37° C. before 5 μl of compounds were added. After 15 min incubation at 37° C. cells were stimulated by adding 5 μl CXCL12 diluted in PBS to reach a final concentration of 100 ng/ml. Cells were further incubated for 2 min before the reaction was stopped by adding 20 μl of 10% PFA. Cells were fixed for 15 min at 4° C. before PFA was removed and cells permeabilized by adding 100 μl ice cold methanol. After 15 min at 4° C. the methanol was removed, cells were washed and 30 μl primary antibody was added (phospho-p44/42 MAPK (Erk1) (Tyr204)/(Erk2) (Tyr187) (D1H6G) mouse mAb #5726; phosphor-Akt (Ser473) (193H12) rabbit mAb #4058 Cell Signaling) for 1 hour at 4° C. After the antibody was removed and cells were washed secondary antibody was added for 30 min. Cells were washed afterwards and subsequently analyzed by flow cytometry.

Data set [6] deals with CXCL12-induced ERK signaling. Put plainly: ERK/AKT signaling assay in SupT1 cells: ERK phosphorylation. The format is cell-based. How it is done: as §1, §2
Data set [7] addresses T1, CXC chemokine receptor type 4 (CXCR4) (human, UniProt P61073 1-352). The data set is described as follows: cell-based or functional assay.
The target of data set [8] is T1, CXC chemokine receptor type 4 (CXCR4). Put plainly: antibody competition assay. How it is done:
Antibody competition assay. Competition of compounds with antibody binding was performed on SupT1 cells. For that cells were washed in PBS containing 1% FCS and 50,000 cells were then seeded per well in a 96 V-well plate. Buffer was removed and plates were precooled at 4° C. […] The antibody was used at a concentration closed to its determined Kd. 15 μl compounds were then added to the cells and 15 μl antibody immediately afterwards. Plates were incubated at 4° C. in the dark for 2 hours. Afterwards cells were washed twice with PBS containing 1% FCS and fixed with 2% PFA. Antibody binding was analyzed by flow cytometry (FACS CytoFLEX; Beckman Coulter®).

Data set [9] has as its target T2, CXC chemokine receptor type 4 (CXCR4) (human, UniProt P61073 1-352).
T2 chain: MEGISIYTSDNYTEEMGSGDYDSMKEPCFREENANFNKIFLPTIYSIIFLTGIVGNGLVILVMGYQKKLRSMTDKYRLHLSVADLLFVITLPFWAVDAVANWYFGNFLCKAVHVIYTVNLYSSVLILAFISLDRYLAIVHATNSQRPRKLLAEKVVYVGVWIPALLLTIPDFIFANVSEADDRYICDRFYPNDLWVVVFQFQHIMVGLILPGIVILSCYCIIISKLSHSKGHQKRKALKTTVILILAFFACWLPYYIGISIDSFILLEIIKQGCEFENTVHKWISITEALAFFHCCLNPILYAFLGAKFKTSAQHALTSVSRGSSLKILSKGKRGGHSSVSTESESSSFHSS
Put plainly: competition.

In data set [10] the target is T2, CXC chemokine receptor type 4 (CXCR4). The data set is described as follows: competition.
For data set [11] the target is unchanged. Put plainly: 12G5 antibody competition.

Regarding `CCCCCCCCCCCCCCCC(=O)N[C@@H](CCC(=O)O)C(=O)NCCCC[C@H](NC(=O)[C@H](CCCNC(=N)N)NC(=O)[C@H](CO)NC(=O)[C@H](Cc1c[nH]c2ccccc12)NC(=O)[C@H](CCCNC(=N)N)NC(=O)[C@H](CCSC)NC(=O)[C@H](N)CC(C)C)C(N)=O` [JM #194, d-LMRWSRK(Glu-Pal)-NH2] (H-[dL]MRWSRK([Glu-Palmitoyl])-NH2; N-terminus assumed), in [1], the “anti-HIV-1 activity (in words)” value is listed as “strongly increased anti-HIV-1 activity” and the 50% inhibitory concentration (IC50) was 2 nM. In addition, in [2] (8 hours post injection), the “remaining activity in plasma in vivo 8 hours post injection” value is “about 9%”. Besides, the “inhibition of CXCL12 induced migration of T-cells (in words)” value in data set [3] is on record as “high activity”. In addition, the “reduction of CXCL12 induced calcium-signaling” value in data set [4] is “almost completely blocked calcium-signaling”.

With `CCCCCCCCCCCCCCCC(=O)NCCCC[C@H](NC(=O)[C@H](CCCNC(=N)N)NC(=O)[C@H](CO)NC(=O)[C@H](Cc1c[nH]c2ccccc12)NC(=O)[C@H](CCCNC(=N)N)NC(=O)[C@H](CC(C)C)NC(=O)[C@@H](N)[C@@H](C)CC)C(=O)N[C@@H](CC(C)C)C(=O)N1CCC[C@H]1C(=O)N[C@@H](CS)C(=O)N[C@H](C(=O)N[C@@H](CO)C(=O)O)C(C)C` [JM #144, ILRWSRK(Pal)LPCVS], in [2] (4 hours post injection), the “remaining activity in plasma in vivo 4 hours post injection” value is 27%. Also, the “reduction of CXCL12 induced calcium-signaling” value in data set [4] is on record as “almost completely blocked calcium-signaling”.

In the case of `CCCCCCCCCCCCCCCC(=O)NCCCC[C@H](NC(=O)[C@H](CCCNC(=N)N)NC(=O)[C@H](CO)NC(=O)[C@H](Cc1c[nH]c2ccccc12)NC(=O)[C@H](CCCNC(=N)N)NC(=O)[C@H](CC(C)C)NC(=O)[C@@H](N)[C@@H](C)CC)C(N)=O` [JM #170, ILRWSRK(Pal)-NH2] (H-ILRWSRK(Palmitoyl)-NH2), the “reduction of CXCL12 induced calcium-signaling” value in data set [4] is on record as “almost completely blocked calcium-signaling”.

Molecule `CCCCCCCCCCCCCCCC(=O)N[C@@H](CCC(=O)NCCCC[C@H](NC(=O)[C@H](CCCNC(=N)N)NC(=O)[C@H](CO)NC(=O)[C@H](Cc1c[nH]c2ccccc12)NC(=O)[C@H](CCCNC(=N)N)NC(=O)[C@H](CC(C)C)NC(=O)[C@@H](N)[C@@H](C)CC)C(=O)N[C@@H](CC(C)C)C(=O)N1CCC[C@H]1C(=O)N[C@@H](CS)C(=O)N[C@H](C(=O)N[C@@H](CO)C(=O)O)C(C)C)C(=O)O` [JM #143, ILRWSRK(Glu-Pal)LPCVS] returned a 50% inhibitory concentration (IC50) in data set [1] of 5 nM. For the same molecule, the “fold increase of anti-HIV-1 potency compared to WSC02” value in data set [1] (compared to WSC02) was “more than 60 fold”. The “inhibition of CXCL12 induced migration of T-cells (in words)” value in data set [3] is recorded as “strongly increased antagonistic effect in CXCL12 induced cell migration”. The “reduction of CXCL12-induced AKT signaling” value in data set [5] (0.1 μM) is 20-25%; in [5] (1 μM), around 70%. Also, in data set [4], the “reduction of CXCL12 induced calcium-signaling” value is given as “almost completely blocked calcium-signaling”. The figures for the “reduction of CXCL12-induced ERK signaling” value in data set [6] (0.1 μM) and in data set [6] (1 μM) were 20-25% and around 70%, respectively.

B1: SEQ ID NO.: 164 (peptide)
peptide: ILRWSRK([Glu-Stearoyl])LPSVS
notes: derived from JM#198 by replacing the cysteine at position 10 by a serine; also called ILRWSRK(Glu-Ste)LPSVS
Take B1: the “IC50, HIV inhibition assay” value in [7] was above 150 nM. Also, the 50% inhibitory concentration (IC50) in data set [8] was below 25 nM.

Consider ILRWSRK-NH2 [JM#118], for which the IC50 in [9] was 181 nM; in data set [10], 224 nM. Also, the “IC50, HIV inhibition assay” value in data set [7] was above 150 nM.

As for ILRWSRK(Palmitoyl)LPCVS [JM#144], the 50% inhibitory concentration (IC50) in [9] was 125 nM; in data set [10] it was 87 nM. In addition, the “IC50, X4-HIV-1 inhibition assay” value in data set [7] was below 5 nM.

For [dM]LRWSRK([Glu-Palmitoyl])-NH2 [JM#196], the “IC50, HIV inhibition assay” value in data set [7] was above 150 nM. Moreover, the IC50 is below 25 nM in data set [8] and 31 nM in [11].

Regarding ILRWSRKLPCVS (not fully specified (residue 7)) [JM#198], the “IC50, HIV inhibition assay” value in [7] was above 150 nM. For the same molecule, the IC50 in data set [8] is below 25 nM.

As for [dM]LRWSRKK-NH2 (not fully specified (residue 8)) [JM#197], in [7], the “IC50, HIV inhibition assay” value is above 150 nM. Besides, in data set [8], the IC50 is below 25 nM.

Consider [dL]MRWSRKK-NH2 (not fully specified (residue 8)) [JM#195], for which the “IC50, HIV inhibition assay” value in data set [7] was 50 nM to 150 nM (2×) and > 150 nM. Further, the 50% inhibitory concentration (IC50) in data set [8] was below 25 nM.

Regarding ILRWSRK([Glu-Palmitoyl])LPCVS [JM#143], the concentration for half-maximal inhibition (IC50) in data set [9] was found to be 204 nM; in data set [10], 176 nM.

Usually IC50 stands for the concentration needed to halve the response being measured.
